Laboratory results reported in the NTF2 design screens of Basanta et al. (2020).

Test: protease stability score; higher = more stable; yeast display proteolysis, trypsin and chymotrypsin;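 also: relative to predicted unfolded state with 0 unfolded-like and 1 meaning tenfold more protease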

Row | Sequence | protease stability score
1 | SEEEKDIKNAFRLLVKIIRTGDWEDHHKQMDPDVLIIVGDKEHHGWEEASRFMKEHLERVDHEDLKLRRVHIQGEKMELDGELFVNVDGRLIRMRVIFFLNKVNGRWVIHSLEIR | 2.28
2 | DEEERLLEKSIKEEIERNVTGDFRRIHELFDPNMRLDINGQEYMGRDLMVERWQKFKNVRSHIELRHYEIINGKAHVDGHLILYIDGVELRTRTRIIYVKINGRWSIQEIDIT | 1.38
3 | DEHEELLRRIFELLLHALKTGDEDLLYKMADPNTRSIIGDKIHHGMEEHRKAVEKWLREMGVKHIEIKRVHIQGEKIHIDTHWKVGDKSETVKINIHVIDGRLTEIHIEIE | 1
4 | HEDNDIMEKAMEDILEKIVTGDEDFLREQMDPHVRSVDIINGRRIERHGREDILELLRRLGFDHVRLERYDIQGDKLIVHSKFTYGDKETELRIIIWKVNGRWVFHSVEVIIL | 1.87
5 | EEDRKHAEHVFELLMEVLLTGDWKMSRHLFDPNARIEIDGVESHGWEFIYRLLRFIWEHLGIKVRDMKIRRFDVINGVAHFDGELRLHVDGVEIVLEIRLNIFVINGRLKEVHLKRT | 1.42
6 | REEEEQLKHFIEHRLHNFLTGNEERLHHLADPNMRIDINGKELHGREAYIYEFNRLGWEIKHIDIEHLEVQGDKVDVDLRFKGHIDGKTRHIKSKLIVLKVDGKWFDKDYFII | 1.13
7 | DEATEAWRVVVELIKRANETGDEETRSENMDPETRMSIDGVDFIGREEVIKHVHKVKNMRIKHVEINDVRIQGDKIHVRGTLHGTVNGRETRIDVVLYVWKINGQWIIHSIEFI | 1.5
8 | SEHEEDARRIFERWINSVNTGDERLIYEMHDPHVRVEINGREFHGREEIHKLAHRIDHFKIHRIIERDVRLVNGRVELHGEIDYRFFFDGKELSSIHSLHMTLTKVNGRWSIEEERVK | 0.39
9 | DEEHKFQHDISIFFMKLIETGDEDTLIDMADPNARSEINGKEVHGMEDAYKWWIDFLRQMGIKHLHVETFHVVNGQTKVHSRVHVGDKEFEVEIRLIIINGRLHEIEIIVRTR | 1.21
10 | DHDEHDADRAVKWFLEDLRTGDEQLNERQADPHVRNDFNGVEIHGREEFLKHLSKLSNELGIKHLHVRHHRVYDGRLELHIELRFDGKTITLIIIKLKVNGRWYVESMHVH | 0.128
11 | DESTHNRKIAVEILEHDNKTGDEKSIFRLFDPHVKIEVDGRDYHGREFFEEFIRKLGWTNIELTIKDVRSIGEFAEMRMEVRYGDWHFHTKVDVKKYNGQWLNREVRIA | 1.44
12 | DDREEELRKMTELMLKAEQTGDEDHWMHLADPHVRVIVNGREFIGREEWARHHEEHRRKVKNIRIHVRIRDSEVQGDKLILDTELELRIGDKTIIRDVEINMTIINGRLRSLEIRIK | 1.17
13 | SEEKKAIDEVLRLIFEAELTGNEDELEHLIDPHVKFHIDGVDVHGWEYLSYWIRQIRIHNLHPRSVEIHVYNGRVEVNIRGHYEGTINGRRTTFDMRVHIRIEKIDGVWIVREMSRHNH | 1.7
14 | DESEKIMEDATKEHVKSFETGDFHTLLRQLDPHVRNNVNGVELHGREDVIRVLRELMERFPNVRVHIERIEVIGDKVNIKVNWNFNGVIVDVNIIAAKINGRWVNREMEVR | 0.966
15 | DEDEEDIRKAVKDFSENFQTGDEDRFKELADPNDRMHVNGREVHGRENIVKSLREEWKRLGVDHIHFEVRRITVQGEKIIVFSFLRIDNENERHHEDVLIIMRKVDGRWMIRTIRVR | 1.45
16 | SESEDQAHKFSEEWIKAFETGDEEHMNRLVDPNVRIEVGDKEHHGRHVYLEILKRLGANHVRIHIEDIEVQGEKLIIHGKIIITVGDKVIEIRTIIIVTKIDGRWRIKDIIFH | 1.39
17 | DEEEKKFHELYKHLVKSLITGDEHELYRLADPNMRFSVGEFHYHGRENVLERLKEFIDRFRHATIRTKHMDRQGEYIHLTLKIHQGDKTHDMEIIAWKFDGRWFLHMIYIE | 0.959
18 | SEEEHEIRLAFKQVIETLITGDEHIMTQLLDPNVKIRQGDKILHGREEAHKWADEWLRRVDHFEDMKIHRHSVFNGRLELDSEQVVIQGDKTISIRSEIILTKINGRWQIEELRFD | 1.43
19 | SEDERWLELLSRLLIEATRTGDWRELRHMLDPNVQLSFDGVQLHGRETIIEFLRHEERRLGVKHIDLHDRRIEYFDGRVILESELIIHYGDKEHRSEVRVYANKVNGRWFIEHIEIG | 2.13
20 | HDEERDSKIASSIMVETWKTGNEHLMERMFDPHTRSHVGDKEIHGMEEFIRWLYELLRKIKNARFTVEDTDLINGVVVVITRLHVGDKDFLLTFFVEKFNGRWHLRSFEMK | 0.772
21 | DQEERIAHKVAEFFLHALLTGDERLLTEYFDPHVRIIIHINGVEIRYHGREEWVEWLRDILRRFDVVRFHIRDIRNIGNKSIVHSEHREHVNGKSRSTRTELLIDVVDGRIHEVEIRIE | 1.44
22 | SEHEEESHIAFEIYQKWVQTGDWEQLDHNFDPDTRVEINGVEHVGMEHFHELEKRLHEHLGISKINSHVKHFEIFDGRLELFTIMEFNGRRIRTHHIAHKVNGRWRIKSIRFE | 1.43
23 | EEDEKTAEEMMHIWIKYLMTGNEERLYKLVDPNARIEFNGRTDHGRESFTKFLRELGIKHSHIEEIRWDVQGEKVILTLHGRLDVNGVDRSNEILIIAEKVNGRWRVESVHLHLR | 1.27
24 | TELEELMIKIIRLILRSHNTGDEDEQRKLLDPHVRWHIGDKEIHGRDLIIEHLKEVYERIDHIEFRENHVDIQGEKLHLDGRLIFIQGDKNIEFRVHYHFLIIDGVVDLIEVQIR | 1.5
25 | DHLEEIADKMAKDFIHIFLTGDEHLHNRLADPNVRLHVNGRDSHGRENWSRMLTQILREMRVKDIKITSSEVQGEWSVSRTRMNVDIDGKVEEIETEIIILVVNGKLESSTIVID | -0.103

Row | Sequence | protease stability score
26 | SSHEEYMIRLVLQIIRLYLTGDEETIRKMADPNTYMKITIGDKDIEAHGREDVIRVREEIRKQIRIHHVDVTSIKVIDGRLVIHGILDGEYDGKRDEVDVRIEIIIVNGKWTSEHARVH | 1.05
27 | SEEEEEIEKMVRHMIHNLLTGNEDVIDKFVDPHVQLHINGRDIHGRENIRREIRRTLEELGVDHWIVHHIEIRRVGDKAIAINHGTIVINGRNVDTEFIFWLHKVNGRWMVHSYEIRIR | 1.4
28 | SEDEKKRDESLELILRAILTGDEDLLKTLADPHVMFDWNGKELHGMNVFIHWVRHMGVDHRNIESKDKRIQGDKVRLDMTSNEHAENHEHRYRVELIIKKIDGRWIIKEFIIR | 1.36
29 | DEHEDNLQHLIHVMTELFITGDWKELRHLIDPNALLHINGKDVHGWHLALEHIVRWREEMGVKHSHVERIHLQGDKTHLHMREHFNGRTVELEIRIIFVNGRLESHEMRIRNN | 0.822
30 | DESEHAAKHVSELFRELVDTGDEKFHEEFADPNVRLDYGDKHYHGREIQLRIFREWRIHHIEDKDVEVQGDKIFVDGRLDGTVDGRRQHYKIILIWRKVNGRWLSTQIRFH | 1.59
31 | SEEEQHLEKMAEDLLHFILTGDEEAMRKMADPTVRLHLHIGDKEERYHGRRDVVRWFHEWVKKVKGMTIEIKRVKVFDGRIFVDGILEINGVKVRVHLITDVIDGKLTRTEERIE | 1.49
32 | DEENNIVKLLFHLYVRAIETGDWKTLEKLADPNYRTIFDGKDLHGREHYMRWVRELRVEDIKLNHIHMQGDKLSIDGEIDVRVGDKETRFEVHIIAEKINGRWILRSSIID | 1.82
33 | TEDDELEKWATQLVKEVLETGDERLLENLADPNVRVEIGEKDSHGREEMLKDWKHMGIDHIHFEHSEFVGDFIDIHLVIHVNGKDLKQRIIILKIDGQWFLHSVHVE | 1.75
34 | DEDVELFELIFKVMIELLETGNEELLRHLADPHTRVHINGVDFHGMEDWLKFLRHIRIEDIKIRHVSVVNGVMHAETETLMHVNGRDKRVDTRVTAIKINGRWVLKHVQYK | 2.51
35 | SEEEKELRFVYDLLWHLLKTGDEEITRELADPRVRIDIDGKEWHGRDELARLFDRLHRELGYTVHRTRHHRHDFINGQWHEDGETKGVIGDKEFETHVKIIIIVINGRLKEVIFHYH | 1.16
36 | DEDKDKVRRWAEDFIRDLTTGDFDSLRREADPNYRIEVNGQDHHGMEFHLWVLDHLGLDNIHTELRDSEVQGDKAHNDIRITYNGKEMTVILIVDKVNGKWFVRKIRIE | 1.72
37 | DEDEELRRRRSEIVRKDWETGDWKSIEELADPHVKNHIGEYLAVGRENLVFVLEHFLKVLGVKHREIHSSELHIVNGRAEVHIDTRLVVNGRNIKTHVRFIFDKVNGRWVMHSVEFHVD | 1.25
38 | DESEESSKEAWRLLLEMWKTGDEDEYSRMIDPNVRIEIGDKHFHGMEHASKRLQTFLKKLGFKHFRMILRDKDSQGNKIEIDLQIDIHQGDYHIHRRVTLILVKVDGKWSVESHHVI | 1.68
39 | SEDQEMSDHASSLLLHTMETGDFRLLHEFLDPNTRVSVNGRDVIGRDETVRHMIEHIKILGVSKVEARLHDVKLINGVAENDVEIDFNGRRIRVWWFVEKINGRWVITHMRVL | 1.47
40 | SELEEITRRVWERLVRDLRTGDEKSLQEMLDPNVRSDFNGVELIGRELATKLIAELRIHDVKVEDVKFQGDKMTLDTKIDGEVNGKRHEFKHTLIFVKVDGQWMIETEEFH | 1.26
41 | KEEETHAREVSEANEHLLETGDWRRLSHLLDPNAKITINGRHFHGREFFTELQKRHEDMLGIKHRHIEDSTVVGDKVIIHTYYHVDGKTLDIEIIIVVINGRHERVEWRFK | 0.782
42 | SKDDEIIHTLIRFIVHILQTGNEEESHRMADPNAKSNINGVEVHGREEFVDLWVEWMERLGHDRVHSRLRHVNIQGDKAIMHIELDVNGKEFNLIVFIRKVNGRWYLEEMTID | 2.11
43 | DEDEKEQKEIADLWKKYVDTGDEKLLMELMDPTARLNIGDKRFHGRETFEHVMREIKKRYDHFELHIHHIDIQGEKIRMEGREINKFDGKTVDIRTRIRIIVVNGRITFLHHQLD | 0.622
44 | SEDHERMKEMIELTLHAIFTGDEDLLKRLLDPHTRIVVNGQDRHGRHALEWFLSVLGIKHIHYEIVRTHLVNGVLHNHIHGHLNVNGKTYELEVEITIRKINGRWLMHVVQWDII | 1.99
45 | DEDRESFEEVSRLLMEDIKTGDEDSWKKLADPHDRIVVGDKTSIGMETSIHLLRVLIHHIRFKDSKIKDIHSQGDKLHLETHLHGEVNGVEYHTFSHIVVRKVDGKWHLESVIII | 1
46 | SHEEHLKRDMLERSFKAWLTGDEESLHELLDPHVRVHFNGRDFHGRELVSTLIREMLRWLGIKHSRFHHIQVFDGKARLELRLEQGEFEVEIEVISLKVDGRWFQHELRFH | 1.02
47 | DQEERDSKHALRFMEHVISTGDEHLIEELLDPHARLDINGVDVHGREEVKRTITEHRKRYKNLRIHVTDLEVVNGVVRLHTELNIGDKRFEVRWFLDKIDGRWLMTEIRIR | 1.12
48 | DDRERDLRELFKRLHEVLETGNEEEMTELIDPHARRTVGDKKIHGRELIAKHLVHEVLRYDHWHLEMHDWRFQGEKIELHGNFRIEVDGKQIVIDTRLTATKVDGRWRITEIRII | 0.743
49 | SKHKEQTEHVMKTWEHAMRTGDEDRVSHLLDPNVRFEVGNKEFHGREEMSRHIVEMRFTELRLRDVETQGDKVHFEGEMRGIIDGKEETNKLIVIIYKVNGRWHIRSVHVE | 0.618
50 | DEDHEIATKVLELWERLINTGDEEQMSRLADPNTKITIGEKDIVGREDIIKDMRHIRWKVKDFKIHDSSVIDGRIHLDGEMHVIFDVNGRRHERTIRMEIIVEKIDGRWVFKSIHIE | 1.3
